Reference: patent publication US20250339531A1, “DUX4 POLYPEPTIDES AND NUCLEIC ACIDS FOR TREATING INFLAMMATORY AND AUTOIMMUNE CONDITIONS” (Fred Hutchinson Cancer Center, priority 2021, published 2025)

Legend:
[1] = molecular target: Y-box-binding protein 3 (Homo sapiens) (UniProt P16989); test: anti-FLAG co-IP LC-MS, exp 3, +IFNg +Dox
[2] = molecular target: Caprin-1 (Homo sapiens) (UniProt Q14444); test: anti-FLAG co-IP LC-MS, exp 3, +IFNg +Dox
[3] = molecular target: Signal transducer and activator of transcription 3 (Homo sapiens) (UniProt P40763); test: anti-FLAG co-IP LC-MS, exp 3, +IFNg +Dox
[4] = molecular target: Ribosome-binding protein 1 (Homo sapiens) (UniProt Q9P2E9); test: anti-FLAG co-IP LC-MS, exp 3, +IFNg +Dox
[5] = molecular target: Heterogeneous nuclear ribonucleoprotein H (Homo sapiens) (UniProt G8JLB6); test: anti-FLAG co-IP LC-MS, exp 3, +IFNg +Dox
[6] = molecular target: Alpha-actinin-4 (Homo sapiens) (UniProt O43707); test: anti-FLAG co-IP LC-MS, exp 3, +IFNg +Dox
[7] = molecular target: Eukaryotic translation initiation factor 3 subunit A (Homo sapiens) (UniProt Q14152); test: anti-FLAG co-IP LC-MS, exp 3, +IFNg +Dox
[8] = molecular target: 60S ribosomal protein L7a (Homo sapiens) (UniProt P62424); test: anti-FLAG co-IP LC-MS, exp 3, +IFNg +Dox
[9] = molecular target: Elongation factor 1-alpha 1 (Homo sapiens) (UniProt P68104); test: anti-FLAG co-IP LC-MS, exp 3, +IFNg +Dox
[10] = molecular target: KN motif and ankyrin repeat domain-containing protein 2 (Homo sapiens) (UniProt Q63ZY3); test: anti-FLAG co-IP LC-MS, exp 3, +IFNg +Dox
[11] = molecular target: Procollagen-lysine, 2-oxoglutarate 5-dioxygenase 3 (Homo sapiens) (UniProt O60568); test: anti-FLAG co-IP LC-MS, exp 3, +IFNg +Dox
[12] = molecular target: Tubulin beta-6 chain (Homo sapiens) (UniProt Q9BUF5); test: anti-FLAG co-IP LC-MS, exp 3, +IFNg +Dox
[13] = molecular target: Clathrin heavy chain (Homo sapiens) (UniProt Q00610); test: anti-FLAG co-IP LC-MS, exp 3, +IFNg +Dox
[14] = molecular target: Plasminogen activator inhibitor 1 RNA-binding protein (Homo sapiens) (UniProt Q8NC51); test: anti-FLAG co-IP LC-MS, exp 3, +IFNg +Dox
[15] = molecular target: 26S proteasome non-ATPase regulatory subunit 2 (Homo sapiens) (UniProt Q13200); test: anti-FLAG co-IP LC-MS, exp 3, +IFNg +Dox
[16] = molecular target: 40S ribosomal protein S6 (Homo sapiens) (UniProt P62753); test: anti-FLAG co-IP LC-MS, exp 3, +IFNg +Dox
[17] = molecular target: Sodium/potassium-transporting ATPase subunit alpha-1 (Homo sapiens) (UniProt P05023); test: anti-FLAG co-IP LC-MS, exp 3, +IFNg +Dox
[18] = molecular target: Spectrin alpha chain, non-erythrocytic 1 (Homo sapiens) (UniProt Q13813); test: anti-FLAG co-IP LC-MS, exp 3, +IFNg +Dox
[19] = molecular target: Protease serine 2 preproprotein (Homo sapiens) (UniProt A6XMV9); test: anti-FLAG co-IP LC-MS, exp 3, +IFNg +Dox
[20] = molecular target: Prelamin-A/C (Homo sapiens) (UniProt P02545); test: anti-FLAG co-IP LC-MS, exp 3, +IFNg +Dox
[21] = molecular target: 60S ribosomal protein L11 (Homo sapiens) (UniProt P62913); test: anti-FLAG co-IP LC-MS, exp 3, +IFNg +Dox
[22] = molecular target: Importin-5 (Fragment) (Homo sapiens) (UniProt O00410); test: anti-FLAG co-IP LC-MS, exp 3, +IFNg +Dox
[23] = molecular target: 60S acidic ribosomal protein P0 (Homo sapiens) (UniProt P05388); test: anti-FLAG co-IP LC-MS, exp 3, +IFNg +Dox
[24] = molecular target: ADP/ATP translocase 2 (Homo sapiens) (UniProt P05141); test: anti-FLAG co-IP LC-MS, exp 3, +IFNg +Dox
[25] = molecular target: 60S ribosomal protein L29 (Homo sapiens) (UniProt P47914); test: anti-FLAG co-IP LC-MS, exp 3, +IFNg +Dox
[26] = molecular target: Vimentin (Homo sapiens) (UniProt P08670); test: anti-FLAG co-IP LC-MS, exp 3, +IFNg +Dox
[27] = molecular target: Keratin, type II cytoskeletal 71 (Homo sapiens) (UniProt Q3SY84); test: anti-FLAG co-IP LC-MS, exp 3, +IFNg +Dox
[28] = molecular target: Prolyl 4-hydroxylase subunit alpha-1 (Homo sapiens) (UniProt P13674); test: anti-FLAG co-IP LC-MS, exp 3, +IFNg +Dox
[29] = molecular target: Endoplasmic reticulum chaperone BiP (Homo sapiens) (UniProt P11021); test: anti-FLAG co-IP LC-MS, exp 3, +IFNg +Dox
[30] = molecular target: Heat shock 70 kDa protein 1B (Homo sapiens) (UniProt P0DMV9); test: anti-FLAG co-IP LC-MS, exp 3, +IFNg +Dox
[31] = molecular target: 60S ribosomal protein L4 (Homo sapiens) (UniProt P36578); test: anti-FLAG co-IP LC-MS, exp 3, +IFNg +Dox
[32] = molecular target: 60S ribosomal protein L13 (Homo sapiens) (UniProt P26373); test: anti-FLAG co-IP LC-MS, exp 3, +IFNg +Dox
[33] = molecular target: Ubiquitin carboxyl-terminal hydrolase 7 (Homo sapiens) (UniProt Q93009); test: anti-FLAG co-IP LC-MS, exp 3, +IFNg +Dox
[34] = molecular target: Spectrin beta chain (Homo sapiens) (UniProt Q01082); test: anti-FLAG co-IP LC-MS, exp 3, +IFNg +Dox
[35] = molecular target: Filamin-A (Homo sapiens) (UniProt P21333); test: anti-FLAG co-IP LC-MS, exp 3, +IFNg +Dox
[36] = molecular target: Elongation factor 1-alpha 1 (Homo sapiens) (UniProt P68104); test: anti-FLAG co-IP LC-MS, exp 3, +Dox

Sequence of Elongation factor 1-alpha 1 (Homo sapiens) (P68104 2-462 limits assumed): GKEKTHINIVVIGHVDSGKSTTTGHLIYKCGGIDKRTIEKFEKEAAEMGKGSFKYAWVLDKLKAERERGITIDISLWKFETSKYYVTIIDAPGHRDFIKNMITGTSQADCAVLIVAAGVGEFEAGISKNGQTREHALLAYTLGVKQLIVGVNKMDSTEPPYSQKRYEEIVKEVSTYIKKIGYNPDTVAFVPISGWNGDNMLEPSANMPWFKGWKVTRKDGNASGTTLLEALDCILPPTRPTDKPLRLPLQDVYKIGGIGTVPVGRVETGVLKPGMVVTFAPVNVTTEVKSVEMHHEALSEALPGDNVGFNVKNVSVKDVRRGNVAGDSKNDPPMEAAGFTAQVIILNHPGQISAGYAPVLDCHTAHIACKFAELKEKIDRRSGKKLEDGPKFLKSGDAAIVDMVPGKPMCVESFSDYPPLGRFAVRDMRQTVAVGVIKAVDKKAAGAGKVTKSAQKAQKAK
Sequence of KN motif and ankyrin repeat domain-containing protein 2 (Homo sapiens) (Q63ZY3 whole entry, the tested form may be a part): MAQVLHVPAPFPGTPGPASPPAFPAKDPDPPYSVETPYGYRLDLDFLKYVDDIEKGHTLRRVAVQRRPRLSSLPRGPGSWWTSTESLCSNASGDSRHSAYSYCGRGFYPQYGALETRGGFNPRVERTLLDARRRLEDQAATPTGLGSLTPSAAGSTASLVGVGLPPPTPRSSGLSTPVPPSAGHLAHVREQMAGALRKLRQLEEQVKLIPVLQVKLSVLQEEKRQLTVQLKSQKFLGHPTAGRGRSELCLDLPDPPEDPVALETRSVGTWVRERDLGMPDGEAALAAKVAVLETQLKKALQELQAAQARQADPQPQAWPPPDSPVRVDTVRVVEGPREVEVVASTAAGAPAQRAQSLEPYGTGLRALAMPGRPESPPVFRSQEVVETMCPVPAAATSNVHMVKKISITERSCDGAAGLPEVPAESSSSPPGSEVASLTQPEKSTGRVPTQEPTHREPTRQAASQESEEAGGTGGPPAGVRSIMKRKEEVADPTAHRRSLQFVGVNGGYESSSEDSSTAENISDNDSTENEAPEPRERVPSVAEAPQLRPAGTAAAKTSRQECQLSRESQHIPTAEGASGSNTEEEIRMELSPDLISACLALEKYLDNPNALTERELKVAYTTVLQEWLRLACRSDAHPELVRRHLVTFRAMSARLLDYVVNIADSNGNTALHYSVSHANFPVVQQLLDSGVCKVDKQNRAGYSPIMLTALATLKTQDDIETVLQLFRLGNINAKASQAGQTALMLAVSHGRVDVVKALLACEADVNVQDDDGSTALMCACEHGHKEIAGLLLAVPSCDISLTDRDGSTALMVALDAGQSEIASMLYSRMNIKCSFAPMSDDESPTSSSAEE
Sequence of Importin-5 (Fragment) (Homo sapiens) (O00410 2-1097 limits assumed): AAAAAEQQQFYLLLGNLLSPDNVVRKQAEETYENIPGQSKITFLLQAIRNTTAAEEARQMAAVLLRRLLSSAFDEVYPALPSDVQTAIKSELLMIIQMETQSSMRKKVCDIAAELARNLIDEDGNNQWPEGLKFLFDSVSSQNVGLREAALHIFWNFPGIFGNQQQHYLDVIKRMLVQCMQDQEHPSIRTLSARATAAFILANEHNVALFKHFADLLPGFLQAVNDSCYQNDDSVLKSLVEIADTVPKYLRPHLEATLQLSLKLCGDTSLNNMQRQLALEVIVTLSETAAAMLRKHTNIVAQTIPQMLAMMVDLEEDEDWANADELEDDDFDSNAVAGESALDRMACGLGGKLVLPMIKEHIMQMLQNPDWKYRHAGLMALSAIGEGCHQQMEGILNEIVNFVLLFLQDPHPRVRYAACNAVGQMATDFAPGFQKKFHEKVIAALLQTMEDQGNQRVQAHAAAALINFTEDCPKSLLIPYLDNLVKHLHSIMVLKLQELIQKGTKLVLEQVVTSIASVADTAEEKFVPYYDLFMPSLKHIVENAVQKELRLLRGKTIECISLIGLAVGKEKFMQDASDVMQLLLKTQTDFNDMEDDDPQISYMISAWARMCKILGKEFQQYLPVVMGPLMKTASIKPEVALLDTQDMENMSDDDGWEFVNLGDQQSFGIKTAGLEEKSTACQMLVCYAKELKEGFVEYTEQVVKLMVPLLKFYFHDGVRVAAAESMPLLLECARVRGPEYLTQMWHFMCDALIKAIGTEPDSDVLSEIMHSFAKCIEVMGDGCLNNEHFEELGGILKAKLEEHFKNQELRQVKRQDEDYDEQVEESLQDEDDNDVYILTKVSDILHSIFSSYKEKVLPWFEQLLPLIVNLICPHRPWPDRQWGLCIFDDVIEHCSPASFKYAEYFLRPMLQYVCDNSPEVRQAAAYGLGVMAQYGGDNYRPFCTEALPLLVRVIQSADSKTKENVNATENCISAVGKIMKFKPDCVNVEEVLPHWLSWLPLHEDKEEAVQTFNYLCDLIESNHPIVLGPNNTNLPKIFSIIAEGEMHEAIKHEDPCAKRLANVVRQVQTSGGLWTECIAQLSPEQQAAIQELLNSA
Sequence of ADP/ATP translocase 2 (Homo sapiens) (P05141 2-298 limits assumed): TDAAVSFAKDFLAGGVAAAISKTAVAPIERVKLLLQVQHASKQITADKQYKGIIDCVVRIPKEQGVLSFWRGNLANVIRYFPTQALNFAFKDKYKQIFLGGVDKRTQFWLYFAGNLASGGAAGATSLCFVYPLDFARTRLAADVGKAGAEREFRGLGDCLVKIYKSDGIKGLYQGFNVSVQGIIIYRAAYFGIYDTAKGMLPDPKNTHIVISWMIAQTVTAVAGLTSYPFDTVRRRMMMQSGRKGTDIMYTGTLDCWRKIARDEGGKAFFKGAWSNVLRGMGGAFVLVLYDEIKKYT
Sequence of 26S proteasome non-ATPase regulatory subunit 2 (Homo sapiens) (Q13200 whole entry): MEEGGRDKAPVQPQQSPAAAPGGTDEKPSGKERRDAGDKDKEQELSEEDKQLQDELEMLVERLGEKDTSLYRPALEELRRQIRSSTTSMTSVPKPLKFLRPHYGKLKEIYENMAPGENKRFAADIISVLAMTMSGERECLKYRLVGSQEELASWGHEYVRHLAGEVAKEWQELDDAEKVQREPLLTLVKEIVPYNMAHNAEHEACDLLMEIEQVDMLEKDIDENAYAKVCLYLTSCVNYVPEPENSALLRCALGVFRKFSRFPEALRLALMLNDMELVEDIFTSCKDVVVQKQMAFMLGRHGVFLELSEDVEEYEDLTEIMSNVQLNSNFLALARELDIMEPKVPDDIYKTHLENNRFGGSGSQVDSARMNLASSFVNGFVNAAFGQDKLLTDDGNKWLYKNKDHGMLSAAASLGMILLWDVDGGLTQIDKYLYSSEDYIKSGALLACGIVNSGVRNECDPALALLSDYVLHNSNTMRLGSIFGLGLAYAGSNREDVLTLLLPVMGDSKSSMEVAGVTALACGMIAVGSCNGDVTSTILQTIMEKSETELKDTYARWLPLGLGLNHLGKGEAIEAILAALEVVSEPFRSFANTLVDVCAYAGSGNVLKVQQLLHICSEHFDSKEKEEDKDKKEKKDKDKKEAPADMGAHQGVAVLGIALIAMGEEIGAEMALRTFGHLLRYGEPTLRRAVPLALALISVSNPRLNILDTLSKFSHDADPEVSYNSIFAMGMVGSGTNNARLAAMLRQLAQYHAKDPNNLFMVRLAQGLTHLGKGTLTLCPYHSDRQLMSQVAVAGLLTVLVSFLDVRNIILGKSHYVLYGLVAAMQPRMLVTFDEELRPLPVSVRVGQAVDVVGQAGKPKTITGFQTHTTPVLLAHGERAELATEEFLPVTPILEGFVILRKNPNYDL
Sequence of Plasminogen activator inhibitor 1 RNA-binding protein (Homo sapiens) (Q8NC51 2-408 limits assumed): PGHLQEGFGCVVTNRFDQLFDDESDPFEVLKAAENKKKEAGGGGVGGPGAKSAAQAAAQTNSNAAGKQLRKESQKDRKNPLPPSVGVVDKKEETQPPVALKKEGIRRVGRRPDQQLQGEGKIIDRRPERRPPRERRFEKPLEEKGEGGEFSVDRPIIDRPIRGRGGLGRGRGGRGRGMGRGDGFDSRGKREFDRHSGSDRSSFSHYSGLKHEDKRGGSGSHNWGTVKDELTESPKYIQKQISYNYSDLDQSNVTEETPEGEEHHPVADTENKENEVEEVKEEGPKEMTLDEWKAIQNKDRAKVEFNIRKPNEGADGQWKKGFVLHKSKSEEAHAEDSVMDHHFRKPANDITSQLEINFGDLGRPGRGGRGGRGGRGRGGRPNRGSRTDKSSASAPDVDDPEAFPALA
Sequence of Protease serine 2 preproprotein (Homo sapiens) (A6XMV9 entry or part of it limits assumed, form in doubt): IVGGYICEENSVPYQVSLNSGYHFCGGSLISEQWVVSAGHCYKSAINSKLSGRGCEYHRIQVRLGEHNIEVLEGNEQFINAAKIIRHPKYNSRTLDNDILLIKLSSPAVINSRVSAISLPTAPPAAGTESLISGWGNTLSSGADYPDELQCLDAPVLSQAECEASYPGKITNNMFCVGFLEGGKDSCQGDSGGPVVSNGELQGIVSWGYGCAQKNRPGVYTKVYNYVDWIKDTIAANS
Sequence of Keratin, type II cytoskeletal 71 (Homo sapiens) (Q3SY84 whole entry): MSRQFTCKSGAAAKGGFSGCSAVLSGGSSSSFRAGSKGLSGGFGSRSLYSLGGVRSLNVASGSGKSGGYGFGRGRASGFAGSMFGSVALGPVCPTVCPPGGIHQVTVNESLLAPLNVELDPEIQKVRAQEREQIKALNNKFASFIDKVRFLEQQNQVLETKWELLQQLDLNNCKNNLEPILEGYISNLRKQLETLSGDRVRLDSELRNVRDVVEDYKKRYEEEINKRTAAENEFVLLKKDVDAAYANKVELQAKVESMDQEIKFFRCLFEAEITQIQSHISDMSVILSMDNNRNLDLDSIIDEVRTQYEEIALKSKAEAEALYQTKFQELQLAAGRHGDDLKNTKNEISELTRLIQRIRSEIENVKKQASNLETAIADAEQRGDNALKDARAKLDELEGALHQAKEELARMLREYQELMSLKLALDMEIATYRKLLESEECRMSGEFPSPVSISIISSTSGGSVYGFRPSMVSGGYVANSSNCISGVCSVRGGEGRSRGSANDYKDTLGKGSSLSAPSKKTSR

Substance: i3XFLAG-NLS-CTDaa154-424
- PSMs [1]: 3 PSMs
- PSMs [2]: 5 PSMs
- PSMs [3]: 3 PSMs
- PSMs [4]: 68 PSMs
- PSMs [5]: 7 PSMs
- PSMs [6]: 11 PSMs
- PSMs [7]: 2 PSMs
- PSMs [8]: 5 PSMs
- PSMs [9]: 21 PSMs
- PSMs [10]: 3 PSMs
- PSMs [11]: 2 PSMs
- PSMs [12]: 39 PSMs
- PSMs [13]: 11 PSMs
- PSMs [14]: 3 PSMs
- PSMs [15]: 3 PSMs
- PSMs [16]: 3 PSMs
- PSMs [17]: 3 PSMs
- PSMs [18]: 10 PSMs
- PSMs [19]: 2 PSMs
- PSMs [20]: 3 PSMs
- PSMs [21]: 2 PSMs
- PSMs [22]: 3 PSMs
- PSMs [23]: 5 PSMs
- PSMs [24]: 3 PSMs
- PSMs [25]: 2 PSMs
- PSMs [26]: 45 PSMs
- PSMs [27]: 9 PSMs
- PSMs [28]: 5 PSMs
- PSMs [29]: 62 PSMs
- PSMs [30]: 10 PSMs
- PSMs [31]: 34 PSMs
- PSMs [32]: 7 PSMs
- PSMs [33]: 6 PSMs
- PSMs [34]: 9 PSMs
- PSMs [35]: 12 PSMs
- PSMs [36]: 9 PSMs
